The target of the first test is T1, gephyrin E domain (gephE), recombinant.
T1 chain: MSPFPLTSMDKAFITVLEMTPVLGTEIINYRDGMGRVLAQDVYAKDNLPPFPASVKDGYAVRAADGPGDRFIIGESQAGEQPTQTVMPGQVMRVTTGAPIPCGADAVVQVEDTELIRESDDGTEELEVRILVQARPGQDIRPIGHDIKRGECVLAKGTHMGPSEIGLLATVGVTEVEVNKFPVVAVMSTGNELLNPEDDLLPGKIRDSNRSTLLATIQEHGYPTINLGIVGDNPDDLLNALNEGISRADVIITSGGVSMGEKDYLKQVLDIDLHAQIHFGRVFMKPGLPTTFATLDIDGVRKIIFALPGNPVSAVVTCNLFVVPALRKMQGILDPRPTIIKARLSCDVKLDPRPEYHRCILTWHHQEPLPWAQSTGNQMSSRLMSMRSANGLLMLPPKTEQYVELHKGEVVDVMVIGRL
Consider DLRSNDFSIVGSLPR (C-terminal amide) [GlyR β-derived peptide 414DLRSNDFSIVGSLPR428, unmodified, in solution], for which the Ki came out at 10 µM.

A further test addresses T2, Gephyrin E domain (gephE) (Rattus norvegicus, UniProt Q03555).
T2 chain: T1 chain
With DLRSNDFSVVGSLPR [GlyRβ_Full_Positional_Scan_166], a half-maximal response (EC50) required 255 µM. The molecule DLRSNDFSLVGSLPR [GlyRβ_Full_Positional_Scan_164] yielded an EC50 of 268 µM. Same read-out and setting: in the case of DLRSNDFSIIGSLPR [GlyRβ_Full_Positional_Scan_183] it was 107 µM. Consider DLRSNDFSCVGSLPR [GlyRβ_Full_Positional_Scan_177], for which the midpoint of the response, the EC50, lay at 118 µM.

Consider DLRSNDFSMVGSLPR [GlyRβ_Full_Positional_Scan_178], for which the EC50 amounted to 228 µM. On the same count and under the same terms, in the case of DLRSNDYSIVGSLPR [GlyRβ_Full_Positional_Scan_129] it was 2200 µM; in that of DLRSNDFTIVGSLPR [GlyRβ_Full_Positional_Scan_156], 198 µM; in that of DLRSNDWSIVGSLPR [GlyRβ_Full_Positional_Scan_128], 380 µM. On the same count and under the same terms, in the case of DLRSNDFGIVGSLPR [GlyRβ_Full_Positional_Scan_142] it was 505 µM.

(Values after publication PMC7753147 (2020).)
